Source: patent publication US20250002563A1 (UNIVERSITY OF PITTSBURGH OF THE COMMONWEALTH SYSTEM OF …, published 2025)

What was measured:
[1] = molecular target: T1, RBDSARS-CoV-2 (SARS-CoV-2 S protein residues 319-539, C-terminal His-tag) (SARS-CoV-2, UniProt P0DTC2 319-539); assay: ELISA
[2] = molecular target: T2, RBDSARS-CoV (SARS-CoV S protein residues 318-510, C-terminal His-tag) (SARS-CoV, UniProt P59594 318-510); assay: ELISA
[3] = molecular target: spike of SARS-CoV-2 Munich strain (authentic virus) (SARS-CoV-2); assay: cell-based or functional assay
[4] = molecular target: T1, RBDSARS-CoV-2 (SARS-CoV-2 S protein …); assay: SPR, RBD immobilized on CM5
[5] = molecular target: T2, RBDSARS-CoV (SARS-CoV S protein …); assay: SPR, RBD immobilized on CM5
[6] = molecular target: SARS-CoV-2 spike on pseudotyped virus particles (Wuhan-Hu-1 strain) (SARS-CoV-2, UniProt P0DTC2 14-1273); assay: cell-based or functional assay
[7] = molecular target: recombinant RBD of the SARS-CoV-2 S protein (Example 1) (SARS-CoV-2, UniProt P0DTC2 319-541); assay: SPR, RBD immobilized on CM5

Binder	IC50 [1]	IC50 [2]	further results
5p-60 (VHH, class II(A) psNb) VHH: QVQLVESGGGLVQAGGSLRLSCAVSGRTISTFGMGWFRQAPGKEREFVATITRDEDMLLYADSVKGRFTISRDTAKNMVFLQMNSLKIEDTALYYCAVRRDSSWGYSRQSTEYDYWGQGTQVTVSS	< 10 nM	< 10 nM	PRNT SARS-CoV-2 Munich IC50 [3]: 9.79 nM
4P-61 (VHH) VHH: QVQLVESGGGLVQAGGSLRLSCAASGSTFNTRNIAWYRQAPGKQRELVAGITNAGATIYADSVKGRFTISRDNAKNTMYLQIDSLKPEDTAVYYCNRIVGTYPWGQGTQVTVSS	< 10 nM	10 to 100 nM	
5p-132 (VHH, class IV psNb) VHH: QVQLVESGGGLVQAGGSLRLSCTASGYDFSILAIAWYRQAPGKERELVAAISRVGSTDYADSVKGRFTISRDNTKNTVSLQMDSLKPEDTAVYYCNAGIPMTTVLSGLGFWGQGTQVTVSS	< 10 nM		Kd [4]: 0.39 nM; Kd [5]: 304 nM
5p-38 (VHH, class II(B) psNb) VHH: QVQLVESGGGLVQAGGSLRLSCAAAARFSTSAMGWFRQAPGKEREFVAAISWSNTNTHYADTVKGRFTISADTAKETVDLQMNSLKPEDTAVYYCVQGGWGIRQPIIVDYWGKGTQVTVSS	< 10 nM	< 10 nM	PRNT SARS-CoV-2 Munich IC50 [3]: 59.9 nM
4P-26 (VHH) VHH: QVQLVESGGGLVQAGGSLRLSCAASGDTLRSYNMGWFRQAPGKEREFVAVISWTGVGTYYGDSVKGRFTISRDVIKNTLYLQMDSLKPEDTAIYYCAADSTTYRLHSAGSDYLYWGQGTQVTVSS	< 10 nM	> 8000 nM	
5p-182 (VHH, class I psNb) VHH: EVQLVESGGGLVQTGGSLRLSCALSGYTFSIFPTAWFRQAPGKEREFVAGIRWNGSTRDYTEYADFVKGRFTISRDNAKNMVYLQMISLKPEDTALYYCAASDGVIDGTNANAYRYWGQGTQVTVSS	< 10 nM	1000 to 8000 nM	PRNT SARS-CoV-2 Munich IC50 [3]: 0.35 nM
5p-18 (VHH) VHH: EVQLVESGGGLVQAGGSLRLSCEASGRTFSSYAMGWFRQAPGKEREFVAAISQGGSTDYGDSTKGRFTISRDNAKNTVYLQMNSLKPEDTAVYYCAADQTPLRYAYSTRSQDYDYWGQGTQVTVSS	< 10 nM	< 10 nM	
R117 (VHH) VHH: HVQLVESGGGLVQAGGSLRLSCAAPGRTFSTSAMGWFRQAPGKEREFVAAIDWSNTNIHYADTVKGRFTISTDTAKNTVYLQMNNLKPEDTAVYYCAQGGWGLTQPISVDYWGKGTQVTVSS	< 10 nM	100 to 1000 nM	
4P-76 (VHH) VHH: EVQLVESGGGLVQAGDSLRLSCAASERTGINYAMGWFRQAPGKERDFVAAIGWNGSITKYAESVKGRFTLSRDDAMNTVSLQMNSLKPEDTAVYYCAARIGSIANLQYREYEFAYWGQGTQVTVSS	10 to 100 nM	1000 to 8000 nM	
5p-23 (VHH) VHH: HVQLVESGGGLVQAGDSLRLSCAASGGTFSSYAMGWFRQVPGKEREFVAAISRGGSTDYADSVKGRFTISRDNAKNTVNLQMNSLKPEDTAVYYCAADRSPLFWGMSQSHGEYDYWGQGTQVTVSS	< 10 nM	10 to 100 nM	
R37 (VHH) VHH: QVQLVESGGGLVQTGGSLRLSCAASGRTFSNYVMGWFRQAPGKEREFVSSIEWNSENTFYANSVKGRFTISRDNAKNTVYLQMNSLKAEDTAVYYCAADRGSSYYYTRASEYTYWGQGTQVTVSS	< 10 nM	< 10 nM	
R58 (VHH) VHH: QVQLVESGGGLVQAGGSLRLSCAASGRDFSSTVMGWFRQAPGKERELVAWMTVTYDITYYADSVKGRFTISKDNAKNTVYLQANSLKPDDTAVYYCASGALRVGSFSPDYWGQGTQVTVSS	10 to 100 nM	1000 to 8000 nM	
4P-85 (VHH) VHH: QVQLVESGGGLVQAGGSLRLSCAVSGRTVSTYGMAWFRQTPGKKERDFVATITRSEGTTFYADSVKGRFTISRDNAKNTVYLQMNSLKIEDTAVYYCAVRRDSSWGYSRDLFEYDDWGQGTQVTVSS	< 10 nM	< 10 nM	
4P-28 (VHH) VHH: QVQLVESGGGLVQAGGSLRLSCAASGRTFSHYPTGWFRQAPGKEREFVSTISESGTSTYYADSVKGRFTISRDNAKNSVYLQMNSLKPEDTALYYCAADTAGRTQYGSSWSTLDGFVYWGQGTQVTVSS	10 to 100 nM	1000 to 8000 nM	
R113 (VHH) VHH: HVQLVESGGGLVQPGGSLRLSCAASGRSFNSYLMGWFRQAPGKEREFVAWISGSPHDIIRYRDSVKDRFTISRDNAKNTVYLQMNSLKPVDTAVYYCAVGSLRVGSFSPDYWGQGTQVTVSS	< 10 nM	10 to 100 nM	
5p-15 (VHH) VHH: QVQLVESGGGLVQPGDSLRLACAASGGTFGYYALGWFRQAPGKEREFVGSITQTGFGTKYADAVKGRFTISRDNAKNTMYLQMNSLKPEDTAVYYCAADPTAQNMGIRDPPYWGQGTQVTVSS	10 to 100 nM	10 to 100 nM	
5p-118 (VHH, class II(B) psNb) VHH: QVQLVESGGGLVQAGESLRLSCAASKPTFRNFAAGWFRQTPGKDREFVAVIEYDGDSAYYADSVKGRFTISRDNAKNTVYLQMNRLKPGDTAVYICAIGGNHYDPSKYYTADEYDYWGQGTQVTVSS	< 10 nM	< 10 nM	PRNT SARS-CoV-2 Munich IC50 [3]: 7.41 nM; Kd [4]: < 0.001 nM; Kd [5]: 0.00396 nM
4P-21 (VHH) VHH: HVQLVESGGGLAQAGGNLRLSCAASGGTFSDYAMGWFRRPPGKEREFVAAISRGGSTFYADSVKGRFTISRDNAKNTVYLQMTSLKPEDTAVYYCAADRSPLFFGVPRSHGEYDYWGQGTQVTVSS	< 10 nM	< 10 nM	
4P-32 (VHH) VHH: DVQLVESGGGLVQAGGSLRLTCAASGRTFSSDTMDMGWFRQAPGKERQFVAADAWNDGRTYYADSVKGRFTISRDNAKNTLYLQMNSLKPEDTAVYYCAADTYSNYEKDYSWGYWGQGTQVTVSS	< 10 nM	1000 to 8000 nM	
4P-89 (VHH) VHH: HVQLVESGGGLVQAGGSLRLSCAASGRTLTTYSMAWFRQAPGKEREVVAAITPTGFGTYYADFVKGRFTISRNSAKNTVYLQMDSLKPEDTAVYYCAARSEIIIASPTGGEYDYWGQGTQVTVSS	< 10 nM	10 to 100 nM	
5p-35 (VHH, class II(B) psNb) VHH: HVQLVESGGGLVQAGGSLRLSCAASGRTFSRYAAGWFRQAPGKEREFVAVIEWDGDSAYYADPVKGRFTISRDNAKNTVYLQMNRLKPEDTAVYICAVGGNHYSRSKYYNLDEYDDWGQGTQVTVSS	< 10 nM	< 10 nM	PRNT SARS-CoV-2 Munich IC50 [3]: 42.2 nM
5p-20 (VHH) VHH: HVQLVESGGGLVQAGGSLRLSCAASGGTFSAYAMGWFRQVPGKEREFVAGIARSGSDYYGDSVKGRFIISRDNTKNTVYLQMNSLKAEDTGVYYCAADRAILYHGLSQRTQAYAYWGPGTQVTVSS	< 10 nM	100 to 1000 nM	
Nb20 (VHH) VHH: QVQLVESGGGLVQAGGSLRLSCAVSGAGAHRVGWFRRAPGKEREFVAAIGASGGMTNYLDSVKGRFTISRDNAKNTIYLQMNSLKPQDTAVYYCAARDIETAEYIYWGQGTQVTVSS			IC50, pseudotyped SARS-CoV-2 neutralization assay (luciferase) [6]: 0.102 nM
Nb21 (VHH) VHH: QVQLVESGGGLVQAGGSLRLSCAVSGLGAHRVGWFRRAPGKEREFVAAIGANGGNTNYLDSVKGRFTISRDNAKNTIYLQMNSLKPQDTAVYYCAARDIETAEYTYWGQGTQVTVSS			IC50, pseudotyped SARS-CoV-2 neutralization assay (luciferase) [6]: 0.045 nM
Nb89 (VHH) VHH: HVQLVESGGGLVQAGGSLRLSCAASGGTFTTFRMAWFRQTPGKEREFVAASSWGFVNYADPVKGRFTISRDNAKNTVYLEMSSLKTEDTAVYYCAARNPGTGQYDYWGQGTQVTVSS			IC50, pseudotyped SARS-CoV-2 neutralization assay (luciferase) [6]: 0.129 nM; Kd [7]: 0.108 nM
4P-74 (VHH) VHH: HVQLVESGGGLVQAGGSLRLSCATSGRTFSTYRMSWFRQAPGKEREFVATIIWSVGSTHYADSVKGRFTISRDNAKNMVYLQMNSLKPEDTAVYYCAAQRSDSSSWGYEDDYDYWGQGTQVTVSS	< 10 nM	> 8000 nM	
4P-56 (VHH, class IV psNb) VHH: QVQLVESGGGLVQAGGSLRLSCAASGRTDSISDMGWFRQAPGKEREFVAVVGWSGGGTDYAHSVKGRFTISRDNAKNTVYLQMNSLKPEDTAVYYCAVGSLRVGSFSVEYWGQGTQVTVSS	< 10 nM	10 to 100 nM	
